The values below come from patent publication US20090162360A1 (Hoffmann-La Roche, published 2009).

In assay [1] the target is T1, recombinant human IGF-1R on I24 cells (human, UniProt P08069 31-1367).
T1 construct: whole, on cells; also called IGF-1R in I24 cells; I24 IGF-1R expressing cells (NIH3T3 cells expressing recombinant human IGF-1R)
Nature of the assay: cellular FACS IGF-1R-ANGPT2 bridging assay on I24 cells with 2 µg/mL hANGPT2, detection <ANGPT2>mIgG1-Biotin + Streptavidin-PE. The procedure: (§1) The assay principle is depicted in FIG. 10.
(§2) Briefly, 5×10E5 I24 cells per FACS tube were incubated with total purified antibody mix and incubated on ice for 1 h (titration 160 μg/ml mix). The respective purified antibodies wildtype <IGF-1R> and <ANGPT2> were applied to the I24 cells as controls. Unbound antibody was washed away with 4 ml ice cold PBS (Gibco)+2% FCS (Gibco), cells were centrifuged (5 min at 400 g) and bound bispecific antibody was detected with 50 μl 2 μg/mL human ANGPT2 (R&D Systems) for 1 h on ice. Subsequently, unbound ANGPT2 was washed away once or twice with 4 ml ice cold PBS (Gibco)+2% FCS (Gibco), cells were centrifuged (5 min at 400 g) and bound ANGPT2 was detected with 50 μl 5 μg/mL <ANGPT2>mIgG1-Biotin antibody (BAM0981, R&D Systems) for 45 min on ice; alternatively, cells were incubated with 50 μl 5 μg/mL mIgG1-Biotin-Isotype control (R&D Systems). Unbound detection antibody was washed away with 4 ml ice cold PBS (Gibco)+2% FCS (Gibco), cells were centrifuged (5 min at 400 g) and bound detection antibody was detected with 50 μl 1:400 Streptavidin-PE conjugate (Invitrogen/Zymed) for 45 min on ice protected from light. Unbound Streptavidin-PE conjugate was washed away with 4 ml ice cold PBS+2% FCS. […]

The target in assay [2] is T2, human ANGPT2 (R&D Systems) (human, UniProt O15123 19-496, limits assumed).
T2 construct: also called hANGPT2; Ang-2
T2 sequence (looked up): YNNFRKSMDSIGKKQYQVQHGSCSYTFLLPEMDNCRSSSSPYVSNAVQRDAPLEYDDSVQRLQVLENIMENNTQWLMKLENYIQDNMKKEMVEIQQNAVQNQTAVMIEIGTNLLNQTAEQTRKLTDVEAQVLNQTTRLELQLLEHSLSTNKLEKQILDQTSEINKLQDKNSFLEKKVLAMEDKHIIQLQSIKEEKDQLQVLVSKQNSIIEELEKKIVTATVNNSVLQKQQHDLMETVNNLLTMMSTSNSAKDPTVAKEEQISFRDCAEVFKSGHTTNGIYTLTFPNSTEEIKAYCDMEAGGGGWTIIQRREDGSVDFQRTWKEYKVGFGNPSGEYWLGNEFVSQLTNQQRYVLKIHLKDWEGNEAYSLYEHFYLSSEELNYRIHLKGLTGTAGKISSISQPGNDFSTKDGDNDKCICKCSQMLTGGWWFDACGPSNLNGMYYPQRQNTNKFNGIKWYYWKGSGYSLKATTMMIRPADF
The description is as above. The procedure:
as §1, §2

B1: monospecific, bivalent <ANGPT2> wildtype antibody (antibody, V domains shown)
VH: EVQLVQSGGGVVQPGRSLRLSCAASGFTFSSYGMHWVRQAPGKGLEWVSYISSSGSTIYYADSVKGRFTISRDNAKNSLYLQMNSLRAEDTAVYYCARDLLDYDILTGYGYWGQGTLVTVSS
VL: not shown
notes: Human IgG1/kappa antibody described in WO 2006/045049; also called wildtype <ANGPT2> antibody; <Ang-2> control antibody
For the molecule B1, the binding result in assay [1] is listed as “no binding”.

B2: wildtype <IGF-1R> antibody (antibody, V domains shown)
VH: QVELVESGGGVVQPGRSQRLSCAASGFTFSSYGMHWVRQAPGKGLEWVAIIWFDGSSTYYADSVRGRFTISRDNSKNTLYLQMNSLRAEDTAVYFCARELGRRYFDLWGRGTLVSVSS
VL: EIVLTQSPATLSLSPGERATLSCRASQSVSSYLAWYQQKPGQAPRLLIYDASKRATGIPARFSGSGSGTDFTLTISSLEPEDFAVYYCQQRSKWPPWTFGQGTKVESKR
notes: Human IgG1/kappa antibody described in WO 2005/005635; also called <IGF-1R> wildtype antibody; original wildtype <IGF-1R> antibody
Turning to B2, the binding result in assay [2] is “no binding”.
